Patent US8247194 (Amgen, dated 2012)

How the values were obtained:
[1] = target: T1, recombinant human GM-CSF (rhGM-CSF), produced in E. coli (human, UniProt P04141 18-144); assay: SPR, rhGM-CSF coated chip, 1:1 Langmuir fit, analyte 3120 nM
T1 construct: The ELISA of 2.5.2 and the TF-1 proliferation assays say only rhGM-CSF without naming the preparation; they are assigned to this molecule; also called human GM-CSF antigen; recombinant human granulocyte macrophage colony stimulating factor

[2] = target: T1, recombinant human GM-CSF (rhGM-CSF), …; assay: SPR, rhGM-CSF coated chip, 1:1 Langmuir fit, analyte 3120 nM; analyte concentration 3120 nM
[3] = target: T1, recombinant human GM-CSF (rhGM-CSF), …; assay: SPR, rhGM-CSF coated chip, 1:1 Langmuir fit, analyte 116 nM
[4] = target: T1, recombinant human GM-CSF (rhGM-CSF), …; assay: SPR, rhGM-CSF coated chip, 1:1 Langmuir fit, analyte 38.5 nM
[5] = target: T1, recombinant human GM-CSF (rhGM-CSF), …; assay: SPR, rhGM-CSF coated chip, 1:1 Langmuir fit, analyte 1040 nM
[6] = target: T1, recombinant human GM-CSF (rhGM-CSF), …; assay: SPR, purified SCA over rhGM-CSF coated chip, 1:1 Langmuir fit
Experimental: FIG. 36A, B: Kinetic binding analysis of SCA leads derived from the method of the invention, as determined by SPR. Binding kinetics (kd and ka) of the SCA leads were measured injecting 10 μL of purified protein in dilution series ranging from 10 μg/mL to 1 pg/mL purified SCA onto a rhGM-CSF coated sensor chip surface. The dissociation was monitored at 25° C. for 100 sec. Data were fitted using BIAevalution™ software determining the rate constant for dissociation (FIG. 36B) and association (FIG. 36A) kinetics. The residuals corresponding to the fitted data monitoring the deviation from the raw data indicated no systematic deviation for the fit.

[7] = target: T1, recombinant human GM-CSF (rhGM-CSF), …; assay: SPR, rhGM-CSF coated chip, 1:1 Langmuir fit, analyte 347 nM
[8] = target: T1, recombinant human GM-CSF (rhGM-CSF), …; assay: cell-based or functional assay
[9] = target: T1, recombinant human GM-CSF (rhGM-CSF), …; assay: SPR, rhGM-CSF coated chip, 1:1 Langmuir fit, analyte 12.8 nM
[10] = target: T1, recombinant human GM-CSF (rhGM-CSF), …; assay: cell-based or functional assay; remark: listed apart in the source

T1 sequence (P04141 18-144 limits assumed): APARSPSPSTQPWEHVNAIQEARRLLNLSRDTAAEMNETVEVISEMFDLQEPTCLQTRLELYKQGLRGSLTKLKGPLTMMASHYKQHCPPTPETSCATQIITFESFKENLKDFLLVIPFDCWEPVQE

B1: half-human SCA B32oN-45 (scFv)
scFv: ELQLVEQSGAALVKPGDSVKMSCKASGYPFTDYIVHWVKQSHGKSLDWIGYINPYSGDTKFNEKFKSKATLTVDKSSSTAYMEFSRLTSEDSAIYYCARSGLIAVYFDYWGQGTTVTVSSGGGGSGGGGSGGGGSELVMTQSPSSVSASVGDRVTIACRASQNIRNILNWYQQRPGKAPQLLIYAASNLQSGVPSRFSGSGSGTDFTLTINSLQPEDFATYYCQQSYSMPRTFGGGTKVEIKTGDYKDDDDKHHHHHH
notes: Expressed from pComb3H5BFlag/His, which adds the Flag-tag between the SCA and the His6-tag; As a lead it was purified by IMAC and gel filtration; also called maternal SCA B32oN-45
[1]
  Ka: 1.06e+07 M⁻¹
  koff: 0.00514 s⁻¹
  kon: 54300 M⁻¹ s⁻¹
[2]
  Kd: 94.6 nM
[3]
  Ka: 1.66e+08 M⁻¹
  Kd: 6.01 nM
  koff: 0.00464 s⁻¹
  kon: 772000 M⁻¹ s⁻¹
[4]
  Ka: 2.2e+08 M⁻¹
  Kd: 4.55 nM
  koff: 0.00444 s⁻¹
  kon: 975000 M⁻¹ s⁻¹
[5]
  Ka: 1.89e+07 M⁻¹
  Kd: 52.8 nM
  koff: 0.0046 s⁻¹
  kon: 87100 M⁻¹ s⁻¹
[6]
  Kd: 50 nM
[7]
  Ka: 9.22e+07 M⁻¹
  Kd: 10.8 nM
  koff: 0.00477 s⁻¹
  kon: 440000 M⁻¹ s⁻¹
[8]
  half maximal inhibition constant (IC50), rhGM-CSF dependent proliferation of TF-1 cells: 6 nM
[9]
  Ka: 3.25e+08 M⁻¹
  Kd: 3.07 nM
  koff: 0.00384 s⁻¹
  kon: 1.25e+06 M⁻¹ s⁻¹

B2: half-human SCA C33oN-33 (scFv)
scFv: ELQLVEQSGAALVKPGDSVKMSCKASGYPFTDYIVHWVKQSHGKSLDWIGYINPYSGDTKFNEKFKSKATLTVDKSSSTAYMEFSRLTSEDSAIYYCARSGLIAVYFDYWGQGTTVTVSSGGGGSGGGGSGGGGSELVLTQSPDFQSVTPKEKVTITCRASQSIGSSLHWYQQKPDQSPKLLIKFASQSLSGVPSRFSGSGSGTDFTLTINSLEAEDAATYYCQQSYSTPSTFGPGTKVEIKTGDYKDDDDKHHHHHH
[10]
  IC50 (read off the curve), TF-1 proliferation, C33ON-33 dimer: ~0.2 µg/mL
  IC50 (read off the curve), TF-1 proliferation, C33ON-33 mono: ~0.2 µg/mL
